Here are results for 167 variants from the RNAGym collection of RNA variant scans (doi:10.7554/elife.80360).

B1: Hairpin Ribozyme (parent)
chain: GUCCUCUUUCACGUGCGCGUGAAAGAGAGAAGUGAACCAGAGAAACACACGUUGUGGUAUAUUACCUGGUA

Variants of B1 are the subject of the series. As to the kind of experiment: self-cleavage, relative activity (ratio to wild type); higher = more cleavage; co-transcriptional.
As for U8A U62C, the self-cleavage stood at 0.183.

With U8C C46A, the self-cleavage was 0.102. Consider U8A A24U, for which the self-cleavage was found to be 0.571. In the case of U8A A24C, the self-cleavage was 0.626. Turning to U8C G19A, the self-cleavage is 0.302. Regarding U8A U9C, the self-cleavage worked out at 0.377. Regarding U9C U33G, the self-cleavage stood at 0.154.

With U9C U33A, the self-cleavage amounted to 0.0961. For the variant U8A C12U, the self-cleavage amounted to 0.747.

Consider U8A G54C, for which the self-cleavage was 0.284. As to U9C G56C, the self-cleavage was found to be 0.158.

Take U9C G56U: the self-cleavage came out at 0.0494. Next, U8A U70A: 0.665; U8A A71U: 0.631. As for U9A G17U, the self-cleavage is 0.65. Consider U9A G17C, for which the self-cleavage is 0.261. With U9A G17A, the self-cleavage worked out at 0.695. For U8C U9C the value was 0.275. Take U8C U9A: the self-cleavage is 0.266. Regarding U9C A11G, the self-cleavage was determined as 0.692. With U9C U20A, the self-cleavage was determined as 0.692. On to U9C U20C, for which the self-cleavage came out at 0.885. Next, U8G G19C: 0.36; U8A A45G: 0.193; U8A A45U: 0.198. For U8A A45C the value was 0.158; for U8C A47U, 0.224. With U9A G34A, the self-cleavage was found to be 0.905. Consider U9A G34U, for which the self-cleavage came out at 1.19. For U9A C16G, the self-cleavage stood at 0.511. Next, U8A U60G: 0.439; U8A U60A: 0.755; U8A A44U: 0.0969. In the case of U9C A35C, the self-cleavage came out at 0.602. On to U9C A35G, for which the self-cleavage came to 0.688. Turning to U9A G40C, the self-cleavage was 0.133. For U9A A61U the value was 0.185. As to U9A A61G, the self-cleavage is 0.148. Regarding U8A A59C, the self-cleavage was determined as 0.165. For the variant U8A C37A, the self-cleavage is 0.288.

Regarding U8A C37U, the self-cleavage came out at 0.56. Take U8A C37G: the self-cleavage was 0.241. On to U8C A64U, for which the self-cleavage was determined as 0.104. For the variant U8C A64G, the self-cleavage turned out to be 0.443. U8A A61G: the self-cleavage worked out at 0.0847. As to U9A C12U, the self-cleavage came out at 0.645. As to U8G G21C, the self-cleavage is 0.401. As to U8G G21A, the self-cleavage was determined as 0.693. With U8A A23U, the self-cleavage is 0.911. U9C G32C: the self-cleavage is 0.0478. With U9C G32A, the self-cleavage was determined as 0.125. In the case of U8A G68U, the self-cleavage was 0.172.

In the case of U8C A59C, the self-cleavage came to 0.183. For U8C A59G, the self-cleavage worked out at 0.203.

Turning to U8A C50A, the self-cleavage was determined as 0.158. On to U8A C50U, for which the self-cleavage worked out at 0.311. Consider U8A G17C, for which the self-cleavage worked out at 0.63. Next, U9C A44G: 0.19.

In the case of U8C C12G, the self-cleavage was found to be 0.229. For U7G U8C the value was 0.656; for U7G U8A, 0.942; for U9A A36C, 0.456. In the case of U9A A36G, the self-cleavage is 0.797.

For U9C C66G, the self-cleavage was 0.202. With U7G G54C, the self-cleavage came out at 0.41. For U8G U20A the value was 0.353.

On to U8G U20G, for which the self-cleavage is 0.614. U8A U20C: the self-cleavage turned out to be 0.928. U8A U20A: the self-cleavage came to 0.479.

As for U8A G21C, the self-cleavage stood at 0.504.

Regarding U7G U60A, the self-cleavage turned out to be 0.795. For the variant U9C A43C, the self-cleavage came out at 0.102. In the case of U9C A43G, the self-cleavage came out at 0.0922. As for U8G U53G, the self-cleavage worked out at 0.705. Turning to U8A G25U, the self-cleavage was 0.114. Take U8A G25A: the self-cleavage was 0.432. For U9C A28C, the self-cleavage stood at 0.394. On to U8A G15C, for which the self-cleavage came to 0.954. As to U8G C38U, the self-cleavage stood at 0.548. Turning to U8G C38A, the self-cleavage stood at 0.165. As for U7G U67G, the self-cleavage was 0.283. Consider U8A A26G, for which the self-cleavage was found to be 0.606. On to U8G C66U, for which the self-cleavage was 0.412. Regarding U8C C50A, the self-cleavage is 0.144.

With U8C C50G, the self-cleavage turned out to be 0.119.

With U8C G40U, the self-cleavage came to 0.164. On to U7G U58C, for which the self-cleavage turned out to be 0.813. As for U8C U60G, the self-cleavage is 0.489. In the case of U8C U60A, the self-cleavage is 0.554. In the case of U8C U60C, the self-cleavage is 1.23. For the variant U8A A35U, the self-cleavage was 0.459.

As for U8A A35G, the self-cleavage was 0.483.

Consider U9A A35C, for which the self-cleavage came out at 0.69. Take U8G C65U: the self-cleavage was found to be 0.363. With U8G C65A, the self-cleavage is 0.97. Consider U8C A23C, for which the self-cleavage was 0.68.

Regarding U8C A23U, the self-cleavage was found to be 0.841. With U8A G34A, the self-cleavage worked out at 0.98. For U9A A39C, the self-cleavage stood at 0.423. As for U9C G15U, the self-cleavage is 0.879. As to U7G U20G, the self-cleavage was determined as 0.453.

As for U8G G29C, the self-cleavage amounted to 0.141. Consider U8A G13C, for which the self-cleavage came to 0.687.

In the case of U8A G13U, the self-cleavage is 0.551. Consider U8A G13A, for which the self-cleavage came out at 0.637.

In the case of U9A U62A, the self-cleavage turned out to be 0.174. As to U8C C10G, the self-cleavage is 0.114.

U8A C46G: the self-cleavage was 0.0541. For U9C C48U, the self-cleavage was determined as 0.0794. With U9C C48G, the self-cleavage came to 0.145.

For the variant U8G C50U, the self-cleavage was 0.327. In the case of U8C G17C, the self-cleavage was 0.404.

On to U8C G17U, for which the self-cleavage worked out at 0.554. Turning to U7G G57A, the self-cleavage worked out at 0.149. Next, U9C G69U: 0.256. With U8G A24G, the self-cleavage stood at 0.632. On to U8A A31C, for which the self-cleavage was determined as 0.0591. Regarding U8A G51C, the self-cleavage is 0.602. For U9A A22U the value was 0.907. As for U8A A43C, the self-cleavage was found to be 0.153. As to U8G A44U, the self-cleavage came out at 0.184.

As to U8G A44G, the self-cleavage worked out at 0.148.

In the case of U8G A44C, the self-cleavage came to 0.139. Take U8C G68C: the self-cleavage came out at 0.238. For U9C C10G, the self-cleavage was found to be 0.582. As to U9C G54U, the self-cleavage turned out to be 0.539. Regarding U8G A31U, the self-cleavage amounted to 0.112. As for U8G A31G, the self-cleavage was 0.47. With U9A U60C, the self-cleavage came to 0.993.

Take U8A G27A: the self-cleavage stood at 0.236.

As for U8C A43C, the self-cleavage came to 0.126. On to U8A G32A, for which the self-cleavage was determined as 0.141. U8A G32U: the self-cleavage was 0.166. For U8G A49G the value was 0.264; for U8G A49U, 0.164; for U9C G19C, 0.485. For U9C G19U the value was 0.617; for U7G G56A, 0.151. Regarding U7G G56C, the self-cleavage turned out to be 0.0943. U8G A61G: the self-cleavage turned out to be 0.0213. For U8C C38U the value was 0.245. In the case of U8C C38G, the self-cleavage is 0.154.

Regarding U9C A47U, the self-cleavage was 0.178. As to U8C A45G, the self-cleavage is 0.149. In the case of U9A A23C, the self-cleavage stood at 0.501. For the variant U9C A71G, the self-cleavage was found to be 0.933. For the variant U9C A71C, the self-cleavage was found to be 1.24. Next, U7G U55C: 0.152. Take U7G U55A: the self-cleavage came to 0.225. Next, U9A U70C: 0.719; U9A U70A: 0.581; U8G G34C: 1.19. Next, U8G G34A: 0.767. For the variant U9A G19C, the self-cleavage was 0.588. For the variant U8A C16U, the self-cleavage was found to be 0.788.

With U9C A41U, the self-cleavage was 0.966. Next, U9A A26G: 0.825; U8C G69U: 0.186. Take U8C G69A: the self-cleavage stood at 0.327. Consider U9A U53A, for which the self-cleavage came to 0.768. For the variant U7G U62G, the self-cleavage turned out to be 0.223. As to U8C A61U, the self-cleavage amounted to 0.182. On to U8C A61C, for which the self-cleavage stood at 0.0941. Take U8C A41U: the self-cleavage came to 1.12. As for U9A C46A, the self-cleavage came out at 0.0884.

For the variant U8A A39C, the self-cleavage came to 0.396. Consider U9A C38A, for which the self-cleavage came to 0.146.
